{
  "source": "patent US20260078171A1",
  "assay_in_all_cases": "BLI (Octet), Fab, monovalent",
  "key": {"[1]": {"biological_target": "SARS-CoV-2 Omicron BA.1 spike S1 subunit (SARS-CoV-2)"}, "[2]": {"biological_target": "SARS-CoV-2 Beta RBD (SARS-CoV-2)"}, "[3]": {"biological_target": "SARS-CoV-2 Omicron BA.2 RBD (SARS-CoV-2)"}},
  "data": [
    {"binder": "VYD222 Fab (Fab, V domains shown) VH: EVQLVESGGGLVKPGGSLRLSCAASGFTFGSYEMNWVRQAPGKGLEWVSSISEDGYSTYYPDSLKGRFTISRDSAKNSLYLQMNSLRADDTAVYYCARDFGGDTAWAGTGFTYWGQGTLVTVSS VL: QSVLTQPPSVSGAPGQRITISCTGSSSNIGAGYDVHWYQQLPGTAPKLLIYGSSSRNYGVPDRFSGSKSGTSASLAITGLQAEDEADYYCQSYDSDLGVLYTFGTGTKVTVL", "values": [
      {"measurement": "Kd", "setting": "[1]", "value": 18.1, "unit": "nM"},
      {"measurement": "Kd", "setting": "[2]", "value": 1.74, "unit": "nM"},
      {"measurement": "Kd", "setting": "[3]", "value": 13.5, "unit": "nM"}
    ]}
  ]
}
